Source: the supplement of paper PMC9112550, “Optimization of the antimicrobial peptide Bac7 by deep mutational scanning” (BMC Biology, 2022)

Test system: Escherichia coli TOP10
Assay: shrunken log2 fold change of peptide-encoding DNA abundance (4.5 h post-induction vs induction); higher = less antimicrobial activity (less host growth inhibition)
Settings: time post-induction: 4.5 h; library: site-saturation at positions 5, 18, 19, 20
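Further: peptides expressed intracellularly from a pBAD plasmid library in pooled LB shake-flask culture, induced with 0.3% L-arabinose, DNA abundance read by NGS, three biological replicates, DESeq2 with apeglm shrinkage.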

Row | Sequence | shrunken log2 fold change
1 | RRIRRRPPRLPRPRPRPVEPPRP | -0.0837
2 | RRIRRRPPRLPRPRPRPVFCPRP | 0.291
3 | RRIRRRPPRLPRPRPRPVFKPRP | -0.0974
4 | RRIRRRPPRLPRPRPRPVFRPRP | 0.226
5 | RRIRRRPPRLPRPRPRPVGCPRP | 0.472
6 | RRIRRRPPRLPRPRPRPVGPPRP | -0.0193
7 | RRIRRRPPRLPRPRPRPVHNPRP | 0.0641
8 | RRIRRRPPRLPRPRPRPVHQPRP | 0.208
9 | RRIRRRPPRLPRPRPRPVHVPRP | 0.0562
10 | RRIRRRPPRLPRPRPRPVKAPRP | 0.148
11 | RRIRRRPPRLPRPRPRPVKDPRP | -0.0534
12 | RRIRRRPPRLPRPRPRPVKFPRP | 0.0517
13 | RRIRRRPPRLPRPRPRPVKLPRP | -0.0474
14 | RRIRRRPPRLPRPRPRPVLKPRP | 0.267
15 | RRIRRRPPRLPRPRPRPVLMPRP | 0.146
16 | RRIRRRPPRLPRPRPRPVMTPRP | 0.573
17 | RRIRRRPPRLPRPRPRPVPDPRP | 0.173
18 | RRIRRRPPRLPRPRPRPVPHPRP | 0.449
19 | RRIRRRPPRLPRPRPRPVPIPRP | 0.137
20 | RRIRRRPPRLPRPRPRPVPSPRP | 0.488
21 | RRIRRRPPRLPRPRPRPVRKPRP | -0.0548
22 | RRIRRRPPRLPRPRPRPVRNPRP | 0.146
23 | RRIRRRPPRLPRPRPRPVRSPRP | 0.551
24 | RRIRRRPPRLPRPRPRPVTVPRP | 0.124
25 | RRIRRRPPRLPRPRPRPVVDPRP | 0.372

Row | Sequence | shrunken log2 fold change
26 | RRIRRRPPRLPRPRPRPVWSPRP | -0.103
27 | RRIRRRPPRLPRPRPRPVYNPRP | -0.154
28 | RRIRRRPPRLPRPRPRPVYRPRP | -0.235
29 | RRIRRRPPRLPRPRPRPVYWPRP | 0.303
30 | RRIRRRPPRLPRPRPRPWAKPRP | 0.0786
31 | RRIRRRPPRLPRPRPRPWALPRP | -0.0259
32 | RRIRRRPPRLPRPRPRPWCQPRP | -0.26
33 | RRIRRRPPRLPRPRPRPWCSPRP | -0.0123
34 | RRIRRRPPRLPRPRPRPWDIPRP | 0.0194
35 | RRIRRRPPRLPRPRPRPWDQPRP | 0.0792
36 | RRIRRRPPRLPRPRPRPWETPRP | 0.00928
37 | RRIRRRPPRLPRPRPRPWFIPRP | 0.0648
38 | RRIRRRPPRLPRPRPRPWGVPRP | 0.405
39 | RRIRRRPPRLPRPRPRPWGYPRP | -0.275
40 | RRIRRRPPRLPRPRPRPWHDPRP | 0.0389
41 | RRIRRRPPRLPRPRPRPWKGPRP | -0.209
42 | RRIRRRPPRLPRPRPRPWKQPRP | -0.0204
43 | RRIRRRPPRLPRPRPRPWKRPRP | -0.0441
44 | RRIRRRPPRLPRPRPRPWMAPRP | 0.0421
45 | RRIRRRPPRLPRPRPRPWMVPRP | -0.151
46 | RRIRRRPPRLPRPRPRPWNWPRP | 2.98
47 | RRIRRRPPRLPRPRPRPWPCPRP | 0.133
48 | RRIRRRPPRLPRPRPRPWTMPRP | -0.257
49 | RRIRRRPPRLPRPRPRPWVAPRP | 0.219
50 | RRIRRRPPRLPRPRPRPWVSPRP | -0.0738

Row | Sequence | shrunken log2 fold change
51 | RRIRRRPPRLPRPRPRPWWCPRP | 4.82
52 | RRIRRRPPRLPRPRPRPWYGPRP | -0.263
53 | RRIRRRPPRLPRPRPRPYAGPRP | -0.137
54 | RRIRRRPPRLPRPRPRPYAIPRP | -0.252
55 | RRIRRRPPRLPRPRPRPYANPRP | -0.0552
56 | RRIRRRPPRLPRPRPRPYAQPRP | -0.252
57 | RRIRRRPPRLPRPRPRPYCAPRP | -0.0524
58 | RRIRRRPPRLPRPRPRPYCHPRP | -0.792
59 | RRIRRRPPRLPRPRPRPYDHPRP | -0.149
60 | RRIRRRPPRLPRPRPRPYDPPRP | 0.0185
61 | RRIRRRPPRLPRPRPRPYETPRP | 0.119
62 | RRIRRRPPRLPRPRPRPYEWPRP | 0.00618
63 | RRIRRRPPRLPRPRPRPYFDPRP | -0.823
64 | RRIRRRPPRLPRPRPRPYFIPRP | -0.432
65 | RRIRRRPPRLPRPRPRPYFLPRP | -0.542
66 | RRIRRRPPRLPRPRPRPYFVPRP | -0.381
67 | RRIRRRPPRLPRPRPRPYFYPRP | -0.683
68 | RRIRRRPPRLPRPRPRPYGNPRP | -0.219
69 | RRIRRRPPRLPRPRPRPYGYPRP | 0.0179
70 | RRIRRRPPRLPRPRPRPYHGPRP | -0.169
71 | RRIRRRPPRLPRPRPRPYIMPRP | -0.733
72 | RRIRRRPPRLPRPRPRPYKDPRP | -0.249
73 | RRIRRRPPRLPRPRPRPYKIPRP | -0.158
74 | RRIRRRPPRLPRPRPRPYNIPRP | -0.464
75 | RRIRRRPPRLPRPRPRPYPFPRP | -0.238
